Among the data in publication PMC3977201 are normalized brightness values, retold here.

This test addresses APOBEC3G labeled with EGFP (A3G-EGFP), wild type (human), Q9HC16. Briefly: fluorescence fluctuation spectroscopy. Conditions: remark: other sources report otherwise.

B1: APOBEC3G labeled with EGFP (A3G-EGFP), wild type, Q9HC16 1-384 (natural protein)
chain: MKPHFRNTVERMYRDTFSYNFYNRPILSRRNTVWLCYEVKTKGPSRPPLDAKIFRGQVYSELKYHPEMRFFHWFSKWRKLHRDQEYEVTWYISWSPCTKCTRDMATFLAEDPKVTLTIFVARLYYFWDPDYQEALRSLCQKRDGPRATMKIMNYDEFQHCWSKFVYSQRELFEPWNNLPKYYILLHIMLGEILRHSMDPPTFTFNFNNEPWVRGRHETYLCYEVERMHNDTWVLLNQRRGFLCNQAPHKHGFLEGRHAELCFLDVIPFWKLDLDQDYRVTCFTSWSPCFSCAQEMAKFISKNKHVSLCIFTARIYDDQGRCQEGLRTLAEAGAKISIMTYSEFKHCWDTFVDHQGCPFQPWDGLDEHSQDLSGRLRAILQNQEN
For B1, the normalized brightness at 1 uM amounted to 10.
